Measured values reported in the DeepSol protein solubility set.

Assay: soluble on expression in E. coli; label from the status in PepcDB or PDB records

Sequence	soluble on expression in E. coli
MSLGLVVLKFGGTSVSTVDKIGKTADQAIYEKKQGNKVIVVVSAMGKSTDKLVAMAEEISEAPDKREMDMLLSTGEQITIALLAMTLKEKGHDAISYTGWQAGIETEAVHSNARIADIDSARIESALDAGQIVVVAGFQGFTTDGEITTLGRGGSDTTAVAIASALNAEKCAICTDVVGVFTTDPRYVKKAQKLEQITYDEMLELANLGAGVLHPRSVEYAKNFRIPLEVRASHEQVPGTMIEEDLTMENTKVVRGIAFEDQITRVTIHWKQKEAMRVSKVFTKLAENNIDVDIIIQGITGLGHGNLSFTIKTSALLATLAVLEESKELLQIEKLESEQELAKVSIVGSGMVSNPGVAAQMFEALTENNIPIKMISTSEIKVSTVVPARKMVEAAQVLHDQFELDKEGHHHHHH	not soluble
MGSDKIHHHHHHMDFDTGRRIDRRAIPADAVEGTWTASDGHPIRRIDWPGHSEPDAPTAPRGSLLFLPGRGDFYEKYLESLDYWHCEGWRVTALDWRGQAGSGRLSSDPMTGHVPDFGLWLDDLGAFWTDWVRDTPGPHVVVGHSMGGHLVLRALAERRIDPAAVVLSAPMLGFLTPGPNRVLHRVAEFMCRIGDPERSAWKSSEKPGATTAARNTLLTHDEARYGDETHWKTVRPELAMGPGSWRWVERAYASMLVLDRPGLLEAVDVPVLLLAARHDGLVSWRAIERAARRLPRAQLMTWGREARHELLREADPVRDKVMHAIDDFLDRLAPPTGEDAPA	not soluble
TQHIESHTHVVSLEEIPVERNLAQLTGWTEGAPVWRLVRQREIEGEVDILDIDYLIKEIVPELPKHRAEDSIFDYLENDLGLAISYAQKEITVEPLTEMDKQLIGEVEGNHVVVVRSIMNLEDTRCFGYTESRHRLNKFKFVEFARRRKL	soluble
MDDERKRKKYTLYLHPEKAADFQTLEAIESVPRSERGELFRNAFISGMALHQLDPRLPVLLTAILSEEFSADQVVTLLSQTTGWKPSQADIRAVLTELGASQSVEKMPPSATDSVQEAMNDVRLKMKKLF	soluble
MGSDKIHHHHHHMGEIMKFYDREKELNYLKTYCQLEPNSILFVYGPKSSGKSTVMRRVIKELENSNIVFFYYNLRKYATPTRDEFLRVFFEKSDKKYLLNKLELNLGVCKFGIEENFDFNNLCLNDVFAKINESINAVVEEGKKPVLIIDELQKLKNIYFNGGKSLLNELFNLFVSLTKMEHLCHVICLTSDTLFIDEIYRNSTLKNASEYYLIDWLRKGTIRNILKEEGFSEEEINYALDYLSLPYEISQLINNKKLGLSVEQTIKQWINVEKDGLKYLIDTTDLDEEGLYNVLSKFKDKIKISYDKEVKKEEMKYLKFLIENEILFYDVINGIIKPTSIIEWHAIKEIINAMQ	not soluble
MTTKEFEDTWAYNTIGSPFPDNPVRVKGQQNMYVALWYKFGKPIHGRAWNDNGNVECSFPYNKVELTGARDLGGQIQILTATEQDPTEQFKKTGFWYEWRPYKDRVNDQLLQLVRCGQSTPVIMKTKDGKDLLGYIDMSTEVAAVGVSGKSEQVAGGPIQDMLVLFRNVKAPPKGIKIYDDTWLDLKYRDPFPAARNPIAAGGRKVKSDDGTEMFQYVALWYEHGQPVFGRAYPDSADKTLANFGWGGQENAGAEIGSFQMLVVPDPDILGFEYKWIPYKEAKAGGPFKPLHVGECTPCLLKDANGTERLGNLHMGMEKATAGLAGKDSAVSGPAVGDFLVLCRN	soluble
MVAYPGPMPRSPSPGQTPDAPTSGGGSTDSTRQRIVAAAKEEFARHGIAGARVDRIAKQARTSKERVYAYFRSKEALYAHVAERETTALIEATQLDPADLPGYAGILFDHFAARPDHYRLITWGRLELAESADNTSGPLQATIAGKLDKLRDAQRIGLLDPAWDPVDVLALINQIAMTWAGQPEIAAAAADQAVDPSVTARRAALVTAVEHMFPRPDRDQRPNRLT	soluble
MVHHDGTLQALITAYQKTPAFTDLAEATRKGYIRHIRQIEADFGDMPVQALADPRVRGEFLDWRDRLAQKSKRSADYAFSVLARILSWAHDRRKIPVNPCEKPGRLYTLEHHHHHH	not soluble
MTICSVNNVTKSFGGNIIFENISLEIKNGERVGLVGRNGSGKTTIFQLLTGMESLDAGAIHMKKGTRIGHVAQIPKFDESMTVYEVLSSAFKIEKELEREMRTLEKDMAEEQESSVLQKLMERYGIIQEKFAFLGGYEIEANIMKVANGLQVTELFPRSFLELSGGEQTKVSLAYMLLQKPDLLLLDEPTNHLDLFAVEWLEQFLKEYNGTVMVISHDRYFLDEVVTKIFDLEDGEIHVYHTNYSRFVEEKEERLLQEFQAYQEQQKKIKKMKEAIKRLREWANQANPPNEGLHKRARSMERALERMQKLKKPILERKQIGLQFEGQDRSGKDVVVIKEVSKGFADHPLFNEVNLHVRFQERAAIVGRNGTGKTTLLKLLLEEIEPDAGEIRIGSSVKIGYLSQHAYGNMKSDVLEAFREYVAVTEGEARHILAKFLFYGPAVFKKVTQLSGGEKMRLRLAQLMYQDINFLILDEPTNHLDIESREVLEEALEQYNGTILAVSHDRYFLNKLFEKTYWIDEHKLFEFAGNYAWARQKWEERLETQVIKQQRQGRKSIETAPVKKKEARNIEEIETELMHVEEDIYTLECTMEHVVDIKRLEQLYEEKTKKELLRAELYNELENIVE	not soluble
MAHHHHHHMCSVPISCSSTHTHTPHSLIVMSAPKKVALVTGANRGIGFATARRLGELGFKVLLGARDAKRGEEAVDTLRNDKLDVDLLLMTPTEHTSVEAAVQKVEADYKRLDVLINNAALMDFDNKVFPLNIQRMRDEFEINFFATVDITNSFLPLMLRSSEAPRLVFVSTPLGTHETVDRPQNKYAHPNLTAYKCTKSAVNMYAHNLAKYLENYAEEAGGSAASAKVNCCYPGYVQTDMCFNSTEAHFTPYEGAETSVWLATLPADGPTGGFYHRAQKLPW	soluble
GKGLGRRVLSINEIVGYDAVNQAFNFMDIFKWDPATDTFKFTGKNNSYLLEHKIAPRMGIPETQVRKIYSELDRRSKILRKIHQANITNFYDLFTTLIQLEEAGVIS	not soluble
MRRVDQPRPPGTPFGLREQTTSNADAPARTAPPAHPAPERPTGMLGGLTRYVPGDRSGRPPAMPAAAETSRRPTTSARPLPYGGSGSAARMNEAAGHPLRMPQLPQLSDIERARFHSVTTDSQHLRPVRPRMPPPVGASPLRRSTALRPYHDVLSQWQRHYNADRNRWHSAWRQANSNNPQIETRTGRALKATADLLEDATQPGRVALELRSVPLPQFPDQAFRLSHLQHMTIDAAGLMELPDTMQQFAGLETLTLARNPLRALPASIASLNRLRELSIRACPELTELPEPLASTDASGEHQGLVNLQSLRLEWTGIRSLPASIANLQNLKSLKIRNSPLSALGPAIHHLPKLEELDLRGCTALRNYPPIFGGRAPLKRLILKDCSNLLTLPLDIHRLTQLEKLDLRGCVNLSRLPSLIAQLPANCIILVPPHLQAQLDQHRPVARPAEPGRTGPTTPALSPSAAGDRAGPSSSATASELLLTAALERIEDTAQAMLSTVIDEERNPFLEGAPSYLPGKRPTDVTTFGQVPALRDMLAESRDLEFLQRVSDMAGPSPRIEDPSEEGLARHYTNVSNWKAQKSAHLGIVDHLGQFVYHEGSPLDVATLAKAVQMWKTRELIVHAHPQDRARFPELAVHIPEQVSDDSDSEQQTSPEPSGHQ	soluble
MNNIRQLTKDEYPKAIELSWQVFTITGKEDFNNEGLEFFKSFIYNKKCINEIIFYGSFDNEALTGILGIKSNGKHISLFFIKPEYHRHGLGKKLFHYASTLHPSIETTVNSSTYAIPFYRSLGFAVVGEKQNYHGLCSTPMRRYHAVFVQKNKYTLRTWQTEDAHSLVQELNNKKIWDNCRNVFPHPYRLEHAETFIDLIQKKEGIHDFCIEVNGKAVGNIGFTPGTDVECFNAEVGYVIGEKYWNQGIVTDALQEAIYHYFTYTNTIRIFALVFEHNLPSMRVLEKAGFNKVGIMTKSIFKNGHFTNAHLFELLKNVLEHHHHHH	not soluble
MGSDKIHHHHHHMEDILKYLQVHVPFRMLEGGFLDTVIAKGISPEIGFDCAILDATGKDRFREVADRFSDAGLRVTFHAPFMDLRPGAIDPRIREVSRERIQQVFDLVPLFRPRTIVCHPSFDSRYYVSSERKWLENSTLTWSTFVEQAAEFDTLLLLENVYEKEPRQFVHLLTALDSLRVRFCLDTGHCNAFSDAPLSSWLEELGTFLGEVHLHDNDGSRDAHLPIGEGNFPFMELFGFLKTKVNRPILTLEAHSADHLSRTLETLRKNRLFGLI	not soluble
MGSDKIHHHHHHMLPALWVAKTGLSAQDTNLTVISNNLANVSTTGFKRDRAEFADLLYQIKRQPGAQSTQDSELPSGLQVGTGVRIVGTQKSFVAGSLQTTDNPLDMAVNGRGFFQILQPDGTVSYTRDGTFHLNSDGQIVTDNGYALEPAIVVPNDAQTFTVGQDGTVSITTAGNPAAQVIGNIQTADFINPAGLQAIGDNLFLETAASGAPQVGTPGLNGFGTTLQQTLENSNVSTVEELVNMITTQRAYEMNSKVISTADQMLSFVTQQL	not soluble
MGHHHHHHQQIMKGNFSSFMQKEIFEQPESVVNTMRGRVNFDDYTVNLGGLKDHIKEIQRCRRLILIACGTSYHAGVATRQVLEELTELPVMVELASDFLDRNTPVFRDDVCFFLSQSGETADTLMGLRYCKERGALTVGITNTVGSSISRETDCGVHINAGPEIGVASTKAYTSQFVSLVMFALMMCDDRISMQERRKEIMLGLKRLPDLIKEVLSMDDEIQKLATELYHQKSVLIMGRGYHYATCLEGALKIKEITYMHSEGILAGELKHGPLALVDKLMPVIMIIMRDHTYAKCQNALQQVVARQGRPVVICDKEDTETIKNTKRTIKVPHSVDCLQGILSVIPLQLLAFHLAVLRGYDVDFPRNLAKSVTVE	soluble
MLSFLQSFFKSLGYEDYFKPIAPSSPRFFTKYCNETQKKITIVIDSNNIIRPFVFDESNEREPLFVAHLGCSECMRWNRMYGENIAENNEPETDSEDETDYESETSDSELGQDSPNPNLSEALNNCIENFDQLVDEVVRHKDFHERSQLLRVLEECLGNMNSFLQNENLTVDDISTGACALLNETAEKLKQMFSSSGISGRKESSEGTNKDLIKFGELEIRGDEEEDDDDESYVEGEEEDSSDEDLDDEDQEGESSIEPRLSETFKKSEARESLSSKEAPVKDLVIYQKFRDEHEDLEESENEPRMSDEAEKLVEDKIIEESDEDSFDIIGRDEELDDDSNGKEEEELELDVTQEDSEDDEQFFSL	not soluble
MSLASIRDIARQAEVSPGTVSRVLNNDPTLSVAKETRTRIHQIAQALQYEKVTRKNKRIQIITYASREKEMSDPYYREIRLAIEAEVKRLNLSLKRTIRIDGQQDHIDLNKIENAGAIIVIGNFSVDALNKLKTHNANMVVINNPNTPKSIDAVYSDLDDAMTELLNRILDKGLTKIAYIGGHHTIRELNGITTTNAADVRYQAYQSWCEKHDVEEIVLLNGWGKTQGEDAVKVYLESDHAFPQVFIAGNDMIAIGILQQLQLNKKAIPEEVKLISFNDLEVIQYAVPSISSVHIPVDEFGRTAVRMAEERINNTRQIAIHVVVEAQLKARNTFKVEGHHHHHH	soluble
MGHHHHHHSHMYKGRTVLQKVVGHPSCTFLYGPPDPAVRATDPQQVAFPSPAELPDQKQLRYTEELLRHVAPGLHLELRGPQLWARRMGKCKVYWEVGGPPGSASPSTPACLLPRNCDTPIFDFRVFFQELVEFRARQRRGSPRYTIYLGFGQDLSAGRPKEKSLVLVKLEPWLCRVHLEGTQREGVSSLDSSSLSLCLSSANSLYDDIECFLMELEQPA	not soluble
